Results from the supplement of paper PMC10724198.

Columns and labels:
Saccharomyces cerevisiae [1] = assay: protein stability index of tFT-peptide fusion in deletion strain of DOA10 (PSI (0-1 scale)); higher = more stable (slower turnover)
Protocol: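 MPS profiling in S. cerevisiae of two library types built from selected 12-aa C-degron peptides (IN1, IN2, LN1, LN3, VN2, R1-R5, W1-W3, Atg1 and Rpa12 C-termini): saturation mutagenesis libraries and C-terminal +1 capping libraries (13 aa). Each peptide is fused to the C-terminus of a sfGFP-mCherry timer, after a GGGS linker. Cells are FACS-sorted into 8 mCherry/sfGFP bins and sequenced. PSI runs from 0 (unstable) to 1 (stable), measured once in wild type and in the das1Δ or doa10Δ background.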

Saccharomyces cerevisiae [2] = assay: protein stability index of tFT-peptide fusion in wild type (PSI (0-1 scale)); higher = more stable (slower turnover); details: genetic background: wild type
Saccharomyces cerevisiae [3] = assay: protein stability index of tFT-peptide fusion in deletion strain of DAS1 (PSI (0-1 scale)); higher = more stable (slower turnover)
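Wherever protein stability index of tFT-peptide fusion in deletion strain of DAS1 is given: PSI is a weighted mean of each variant's read distribution over the sorted stability bins, computed only for variants having over 10 reads in total.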
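Wherever protein stability index of tFT-peptide fusion in deletion strain of DOA10 is given: PSI per variant is the weighted mean of its sequencing read distribution over the sorted stability bins, counting only variants with over 10 reads summed across bins.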
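Wherever protein stability index of tFT-peptide fusion in wild type is given: PSI derived as read-weighted mean over the 8 sorting bins, only variants exceeding 10 total reads kept, mCherry placed adjacent to the peptide and sfGFP distal.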

Sequence: AIRLPMCPLLLR
- protein stability index (Saccharomyces cerevisiae [1]): 0.649
- protein stability index (Saccharomyces cerevisiae [2]): 0.27

Sequence: AISLPMCPLLLR
- protein stability index (Saccharomyces cerevisiae [1]): 0.655
- protein stability index (Saccharomyces cerevisiae [2]): 0.226

Sequence: AITFPMCPLLLR
- protein stability index (Saccharomyces cerevisiae [1]): 0.676
- protein stability index (Saccharomyces cerevisiae [2]): 0.3

Sequence: AITLIMCPLLLR
- protein stability index (Saccharomyces cerevisiae [1]): 0.658
- protein stability index (Saccharomyces cerevisiae [2]): 0.465

Sequence: AITLPGCPLLLR
- protein stability index (Saccharomyces cerevisiae [1]): 0.683
- protein stability index (Saccharomyces cerevisiae [2]): 0.327

Sequence: AITLPMCPALLR
- protein stability index (Saccharomyces cerevisiae [1]): 0.672
- protein stability index (Saccharomyces cerevisiae [2]): 0.493

Sequence: AITLPMCPLLLC
- protein stability index (Saccharomyces cerevisiae [1]): 0.184
- protein stability index (Saccharomyces cerevisiae [2]): 0.134

Sequence: AITLPMCPLLLRK
- protein stability index (Saccharomyces cerevisiae [1]): 0.67
- protein stability index (Saccharomyces cerevisiae [2]): 0.43

Sequence: AITLPMCPLLLRM
- protein stability index (Saccharomyces cerevisiae [1]): 0.573
- protein stability index (Saccharomyces cerevisiae [2]): 0.172

Sequence: AITLPMCPLLLRQ
- protein stability index (Saccharomyces cerevisiae [1]): 0.634
- protein stability index (Saccharomyces cerevisiae [2]): 0.34

Sequence: AITLPMCPLLLS
- protein stability index (Saccharomyces cerevisiae [1]): 0.443
- protein stability index (Saccharomyces cerevisiae [2]): 0.405

Sequence: AITLPMCPLLLT
- protein stability index (Saccharomyces cerevisiae [1]): 0.491
- protein stability index (Saccharomyces cerevisiae [2]): 0.449

Sequence: AITLPMCPLLPR
- protein stability index (Saccharomyces cerevisiae [1]): 0.673
- protein stability index (Saccharomyces cerevisiae [2]): 0.667

Sequence: AITLPMHPLLLR
- protein stability index (Saccharomyces cerevisiae [1]): 0.643
- protein stability index (Saccharomyces cerevisiae [2]): 0.25

Sequence: AITLRMCPLLLR
- protein stability index (Saccharomyces cerevisiae [1]): 0.643
- protein stability index (Saccharomyces cerevisiae [2]): 0.389

Sequence: AITQPMCPLLLR
- protein stability index (Saccharomyces cerevisiae [1]): 0.701
- protein stability index (Saccharomyces cerevisiae [2]): 0.508

Sequence: ATTLPMCPLLLR
- protein stability index (Saccharomyces cerevisiae [1]): 0.673
- protein stability index (Saccharomyces cerevisiae [2]): 0.383

Sequence: CGVSLPILLFFR
- protein stability index (Saccharomyces cerevisiae [1]): 0.622
- protein stability index (Saccharomyces cerevisiae [2]): 0.0581

Sequence: CLVMLPILLFFR
- protein stability index (Saccharomyces cerevisiae [1]): 0.426
- protein stability index (Saccharomyces cerevisiae [2]): 0.0682

Sequence: CLVQLPILLFFR
- protein stability index (Saccharomyces cerevisiae [1]): 0.597
- protein stability index (Saccharomyces cerevisiae [2]): 0.0481

Sequence: CLVSKPILLFFR
- protein stability index (Saccharomyces cerevisiae [1]): 0.627
- protein stability index (Saccharomyces cerevisiae [2]): 0.17

Sequence: CLVSLCILLFFR
- protein stability index (Saccharomyces cerevisiae [1]): 0.334
- protein stability index (Saccharomyces cerevisiae [2]): 0.23

Sequence: CLVSLLILLFFR
- protein stability index (Saccharomyces cerevisiae [1]): 0.408
- protein stability index (Saccharomyces cerevisiae [2]): 0.319

Sequence: CLVSLNILLFFR
- protein stability index (Saccharomyces cerevisiae [1]): 0.323
- protein stability index (Saccharomyces cerevisiae [2]): 0.17

Sequence: CLVSLPIELFFR
- protein stability index (Saccharomyces cerevisiae [1]): 0.656
- protein stability index (Saccharomyces cerevisiae [2]): 0.596

Sequence: CLVSLPIKLFFR
- protein stability index (Saccharomyces cerevisiae [1]): 0.652
- protein stability index (Saccharomyces cerevisiae [2]): 0.123

Sequence: CLVSLPILCFFR
- protein stability index (Saccharomyces cerevisiae [1]): 0.558
- protein stability index (Saccharomyces cerevisiae [2]): 0.0771

Sequence: CLVSLPILLFFC
- protein stability index (Saccharomyces cerevisiae [1]): 0.249
- protein stability index (Saccharomyces cerevisiae [2]): 0.0908

Sequence: CLVSLPILLFFK
- protein stability index (Saccharomyces cerevisiae [1]): 0.577
- protein stability index (Saccharomyces cerevisiae [2]): 0.0574

Sequence: CLVSLPILLFFW
- protein stability index (Saccharomyces cerevisiae [1]): 0.435
- protein stability index (Saccharomyces cerevisiae [2]): 0.252

Sequence: CLVSLPILLFNR
- protein stability index (Saccharomyces cerevisiae [1]): 0.588
- protein stability index (Saccharomyces cerevisiae [2]): 0.394

Sequence: CLVSLPILLFVR
- protein stability index (Saccharomyces cerevisiae [1]): 0.249
- protein stability index (Saccharomyces cerevisiae [2]): 0.0446

Sequence: CLVSLPILLIFR
- protein stability index (Saccharomyces cerevisiae [1]): 0.537
- protein stability index (Saccharomyces cerevisiae [2]): 0.0669

Sequence: CLVSLPMLLFFR
- protein stability index (Saccharomyces cerevisiae [1]): 0.626
- protein stability index (Saccharomyces cerevisiae [2]): 0.0605

Sequence: CLVSLPWLLFFR
- protein stability index (Saccharomyces cerevisiae [1]): 0.65
- protein stability index (Saccharomyces cerevisiae [2]): 0.144

Sequence: CLVSNPILLFFR
- protein stability index (Saccharomyces cerevisiae [1]): 0.661
- protein stability index (Saccharomyces cerevisiae [2]): 0.368

Sequence: CLVSQPILLFFR
- protein stability index (Saccharomyces cerevisiae [1]): 0.628
- protein stability index (Saccharomyces cerevisiae [2]): 0.227

Sequence: CLVVLPILLFFR
- protein stability index (Saccharomyces cerevisiae [1]): 0.451
- protein stability index (Saccharomyces cerevisiae [2]): 0.0796

Sequence: GLQMCSVGCWFR
- protein stability index (Saccharomyces cerevisiae [1]): 0.656
- protein stability index (Saccharomyces cerevisiae [2]): 0.195

Sequence: GLTMCSVGCWFR
- protein stability index (Saccharomyces cerevisiae [1]): 0.674
- protein stability index (Saccharomyces cerevisiae [2]): 0.219

Sequence: GLVMCSVGCWFR
- protein stability index (Saccharomyces cerevisiae [1]): 0.45
- protein stability index (Saccharomyces cerevisiae [2]): 0.19

Sequence: GLYGCSVGCWFR
- protein stability index (Saccharomyces cerevisiae [1]): 0.683
- protein stability index (Saccharomyces cerevisiae [2]): 0.504

Sequence: GLYHCSVGCWFR
- protein stability index (Saccharomyces cerevisiae [1]): 0.674
- protein stability index (Saccharomyces cerevisiae [2]): 0.409

Sequence: GLYMASVGCWFR
- protein stability index (Saccharomyces cerevisiae [1]): 0.684
- protein stability index (Saccharomyces cerevisiae [2]): 0.322

Sequence: GLYMCMVGCWFR
- protein stability index (Saccharomyces cerevisiae [1]): 0.462
- protein stability index (Saccharomyces cerevisiae [2]): 0.25

Sequence: GLYMCSDGCWFR
- protein stability index (Saccharomyces cerevisiae [1]): 0.718
- protein stability index (Saccharomyces cerevisiae [2]): 0.65

Sequence: GLYMCSGGCWFR
- protein stability index (Saccharomyces cerevisiae [1]): 0.687
- protein stability index (Saccharomyces cerevisiae [2]): 0.47

Sequence: GLYMCSSGCWFR
- protein stability index (Saccharomyces cerevisiae [1]): 0.679
- protein stability index (Saccharomyces cerevisiae [2]): 0.435

Sequence: GLYMCSVGCDFR
- protein stability index (Saccharomyces cerevisiae [1]): 0.663
- protein stability index (Saccharomyces cerevisiae [2]): 0.641

Sequence: GLYMCSVGCPFR
- protein stability index (Saccharomyces cerevisiae [1]): 0.677
- protein stability index (Saccharomyces cerevisiae [2]): 0.642

Sequence: GLYMCSVGCWFC
- protein stability index (Saccharomyces cerevisiae [1]): 0.287
- protein stability index (Saccharomyces cerevisiae [2]): 0.261

Sequence: GLYMCSVGCWFH
- protein stability index (Saccharomyces cerevisiae [1]): 0.497
- protein stability index (Saccharomyces cerevisiae [2]): 0.401

Sequence: GLYMCSVGCWFN
- protein stability index (Saccharomyces cerevisiae [1]): 0.343
- protein stability index (Saccharomyces cerevisiae [2]): 0.29

Sequence: GLYMCSVGCWFRD
- protein stability index (Saccharomyces cerevisiae [1]): 0.649
- protein stability index (Saccharomyces cerevisiae [2]): 0.431

Sequence: GLYMCSVGCWFRR
- protein stability index (Saccharomyces cerevisiae [1]): 0.646
- protein stability index (Saccharomyces cerevisiae [2]): 0.347

Sequence: GLYMCSVGCWFW
- protein stability index (Saccharomyces cerevisiae [1]): 0.453
- protein stability index (Saccharomyces cerevisiae [2]): 0.333

Sequence: GLYMCSVGCWHR
- protein stability index (Saccharomyces cerevisiae [1]): 0.722
- protein stability index (Saccharomyces cerevisiae [2]): 0.668

Sequence: GLYMCSVGNWFR
- protein stability index (Saccharomyces cerevisiae [1]): 0.683
- protein stability index (Saccharomyces cerevisiae [2]): 0.611

Sequence: GLYMCSVGRWFR
- protein stability index (Saccharomyces cerevisiae [1]): 0.668
- protein stability index (Saccharomyces cerevisiae [2]): 0.643

Sequence: GLYMESVGCWFR
- protein stability index (Saccharomyces cerevisiae [1]): 0.703
- protein stability index (Saccharomyces cerevisiae [2]): 0.415

Sequence: ILYMCSVGCWFR
- protein stability index (Saccharomyces cerevisiae [1]): 0.486
- protein stability index (Saccharomyces cerevisiae [2]): 0.289

Sequence: IVTRLDAIYFRI
- protein stability index (Saccharomyces cerevisiae [1]): 0.612
- protein stability index (Saccharomyces cerevisiae [2]): 0.24

Sequence: RATRLDAIYFRI
- protein stability index (Saccharomyces cerevisiae [1]): 0.681
- protein stability index (Saccharomyces cerevisiae [2]): 0.493

Sequence: RHLRVLLPLYFR
- protein stability index (Saccharomyces cerevisiae [1]): 0.678
- protein stability index (Saccharomyces cerevisiae [2]): 0.277

Sequence: RITLPMCPLLLR
- protein stability index (Saccharomyces cerevisiae [1]): 0.651
- protein stability index (Saccharomyces cerevisiae [2]): 0.296

Sequence: RMTRLDAIYFRI
- protein stability index (Saccharomyces cerevisiae [1]): 0.655
- protein stability index (Saccharomyces cerevisiae [2]): 0.429

Sequence: RNTRLDAIYFRI
- protein stability index (Saccharomyces cerevisiae [1]): 0.664
- protein stability index (Saccharomyces cerevisiae [2]): 0.529

Sequence: RSFRVLLPLYFR
- protein stability index (Saccharomyces cerevisiae [1]): 0.612
- protein stability index (Saccharomyces cerevisiae [2]): 0.162

Sequence: RSIRVLLPLYFR
- protein stability index (Saccharomyces cerevisiae [1]): 0.643
- protein stability index (Saccharomyces cerevisiae [2]): 0.225

Sequence: RSLRVELPLYFR
- protein stability index (Saccharomyces cerevisiae [1]): 0.685
- protein stability index (Saccharomyces cerevisiae [2]): 0.17

Sequence: RSLRVLIPLYFR
- protein stability index (Saccharomyces cerevisiae [1]): 0.639
- protein stability index (Saccharomyces cerevisiae [2]): 0.23

Sequence: RSLRVLLPLCFR
- protein stability index (Saccharomyces cerevisiae [1]): 0.687
- protein stability index (Saccharomyces cerevisiae [2]): 0.405

Sequence: RSLRVLLPLFFR
- protein stability index (Saccharomyces cerevisiae [1]): 0.681
- protein stability index (Saccharomyces cerevisiae [2]): 0.38

Sequence: RSLRVLLPLMFR
- protein stability index (Saccharomyces cerevisiae [1]): 0.654
- protein stability index (Saccharomyces cerevisiae [2]): 0.288

Sequence: RSLRVLLPLYER
- protein stability index (Saccharomyces cerevisiae [1]): 0.658
- protein stability index (Saccharomyces cerevisiae [2]): 0.645

Sequence: RSLRVLLPLYFA
- protein stability index (Saccharomyces cerevisiae [1]): 0.413
- protein stability index (Saccharomyces cerevisiae [2]): 0.286

Sequence: RSLRVLLPLYFH
- protein stability index (Saccharomyces cerevisiae [1]): 0.583
- protein stability index (Saccharomyces cerevisiae [2]): 0.365

Sequence: VRGAVGNWRLVG
- protein stability index (Saccharomyces cerevisiae [3]): 0.69
- protein stability index (Saccharomyces cerevisiae [2]): 0.14

Sequence: VRGAVKGWRLVG
- protein stability index (Saccharomyces cerevisiae [3]): 0.68
- protein stability index (Saccharomyces cerevisiae [2]): 0.148

Sequence: VRGCVGGWRLVG
- protein stability index (Saccharomyces cerevisiae [3]): 0.655
- protein stability index (Saccharomyces cerevisiae [2]): 0.148

Sequence: VRGWVGGWRLVG
- protein stability index (Saccharomyces cerevisiae [3]): 0.681
- protein stability index (Saccharomyces cerevisiae [2]): 0.134

Sequence: VRNAVGGWRLVG
- protein stability index (Saccharomyces cerevisiae [3]): 0.674
- protein stability index (Saccharomyces cerevisiae [2]): 0.137

Sequence: VRQAVGGWRLVG
- protein stability index (Saccharomyces cerevisiae [3]): 0.684
- protein stability index (Saccharomyces cerevisiae [2]): 0.132

Sequence: VRTAVGGWRLVG
- protein stability index (Saccharomyces cerevisiae [3]): 0.678
- protein stability index (Saccharomyces cerevisiae [2]): 0.137

Sequence: VRYAVGGWRLVG
- protein stability index (Saccharomyces cerevisiae [3]): 0.68
- protein stability index (Saccharomyces cerevisiae [2]): 0.0921

Sequence: VSGAVGGWRLVG
- protein stability index (Saccharomyces cerevisiae [3]): 0.672
- protein stability index (Saccharomyces cerevisiae [2]): 0.143

Sequence: VVGAVGGWRLVG
- protein stability index (Saccharomyces cerevisiae [3]): 0.69
- protein stability index (Saccharomyces cerevisiae [2]): 0.125

Sequence: YLIQPLPVQFLN
- protein stability index (Saccharomyces cerevisiae [3]): 0.624
- protein stability index (Saccharomyces cerevisiae [2]): 0.0777
